Laboratory results as given in patent publication US20060058231A1 (Xencor, published 2006).
Positions count from the first letter of the chain named. In names and notes the source's numbering stands.

T1: BMPRII receptor-Fc fusion (UniProt Q13873 27-151, limits assumed)
T1 construct: BMP receptor-Fc fusion used at 5 ug/mL
T1 sequence (looked up): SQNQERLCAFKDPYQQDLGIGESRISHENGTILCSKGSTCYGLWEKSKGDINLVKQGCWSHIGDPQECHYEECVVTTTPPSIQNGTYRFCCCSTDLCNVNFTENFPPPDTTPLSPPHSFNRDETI

T2: BMPRIb receptor-Fc fusion (UniProt O00238 14-126)
T2 construct: BMP receptor-Fc fusion used at 5 ug/mL; also called ALK-6
T2 sequence (looked up): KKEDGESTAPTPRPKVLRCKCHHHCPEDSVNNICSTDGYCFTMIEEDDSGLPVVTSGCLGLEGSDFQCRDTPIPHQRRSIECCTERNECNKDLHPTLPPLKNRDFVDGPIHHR

T3: BMPRII receptor-Fc fusion (UniProt Q13873 27-151, limits assumed)
T3 construct: BMP receptor-Fc fusion, detected with anti-human IgG-HRP
T3 sequence (looked up): T1 sequence (looked up)

T4: BMPRIb receptor-Fc fusion (UniProt O00238 14-126)
T4 construct: BMP receptor-Fc fusion, detected with anti-human IgG-HRP; also called ALK-6
T4 sequence (looked up): T2 sequence (looked up)

B1: BMP-7 variant R134K (ligand)
chain: STGGKQRSQNRSKTPKNQEALRMASVAENSSSDQRQACKKHELYVSFRDLGWQDWIIAPEGYAAYYCEGECAFPLNSYMNATNHAIVQTLVHFINPETVPKPCCAPTQLNAISVLYFDDSSNVILKKYRNMVVKACGCH
notes: In conditioned media; numbering on mature BMP-7
B2: BMP-7 variant V26E (ligand)
chain: B1 chain with V26E, K134R
notes: as for B1
B3: BMP-7 variant R134P (ligand)
chain: B1 chain with K134P
B4: BMP-7 variant Y78P (ligand)
chain: B1 chain with Y78P, K134R
notes: as for B1
B5: BMP-7 variant Y128K (ligand)
chain: B1 chain with Y128K, K134R
notes: as for B1
B6: BMP-7 variant Y78D (ligand)
chain: B1 chain with Y78D, K134R
notes: as for B1
B7: BMP-7 variant S77P (ligand)
chain: B1 chain with S77P, K134R
notes: as for B1
B8: BMP-7 variant K39D (ligand)
chain: B1 chain with K39D, K134R
B9: BMP-7 variant Y78T (ligand)
chain: B1 chain with Y78T, K134R
notes: as for B1
B10: BMP-7 variant V26G (ligand)
chain: B1 chain with V26G, K134R
notes: as for B1
B11: BMP-7 variant Y44T (ligand)
chain: B1 chain with Y44T, K134R
notes: as for B1
B12: BMP-7 variant Y78R (ligand)
chain: B1 chain with Y78R, K134R
notes: as for B1
B13: BMP-7 variant S77T (ligand)
chain: B1 chain with S77T, K134R
notes: as for B1
B14: BMP-7 variant R134L (ligand)
chain: B1 chain with K134L
B15: BMP-7 variant Q53A (ligand)
chain: B1 chain with Q53A, K134R
B16: BMP-7 variant E60S (ligand)
chain: B1 chain with E60S, K134R
B17: BMP-7 variant V123G (ligand)
chain: B1 chain with V123G, K134R
notes: as for B1
B18: BMP-7 variant V26N (ligand)
chain: B1 chain with V26N, K134R
notes: as for B1
B19: BMP-7 variant S77E (ligand)
chain: B1 chain with S77E, K134R
notes: as for B1
B20: BMP-7 variant W52A (ligand)
chain: B1 chain with W52A, K134R
notes: as for B1
B21: BMP-7 variant K126G (ligand)
chain: B1 chain with K126G, K134R
B22: BMP-7 variant Y78S (ligand)
chain: B1 chain with Y78S, K134R
notes: as for B1
B23: BMP-7 variant W55N (ligand)
chain: B1 chain with W55N, K134R
notes: as for B1
B24: BMP-7 variant Y44N (ligand)
chain: B1 chain with Y44N, K134R
notes: as for B1
B25: BMP-7 variant K39T (ligand)
chain: B1 chain with K39T, K134R
B26: BMP-7 variant Y78H (ligand)
chain: B1 chain with Y78H, K134R
notes: as for B1
B27: BMP-7 variant R134S (ligand)
chain: B1 chain with K134S
B28: BMP-7 variant W55R (ligand)
chain: B1 chain with W55R, K134R
notes: as for B1

Assays:
[1] = target: T5, ActRIIa receptor-Fc fusion (UniProt P27037 20-134, limits assumed); experiment: ELISA-like plate assay, captured BMP-7 from conditioned media, receptor-Fc detection
T5 construct: BMP receptor-Fc fusion used at 5 ug/mL
T5 sequence (P27037 20-134 limits assumed): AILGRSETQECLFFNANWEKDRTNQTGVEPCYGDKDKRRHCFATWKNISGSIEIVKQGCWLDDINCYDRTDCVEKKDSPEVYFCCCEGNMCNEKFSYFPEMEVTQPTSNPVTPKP

[2] = target: T1, BMPRII receptor-Fc fusion; experiment: as above
[3] = target: T6, BMPRIa receptor-Fc fusion (UniProt P36894 24-152, limits assumed); experiment: as above
T6 construct: also called ALK-3
T6 sequence (P36894 24-152 limits assumed): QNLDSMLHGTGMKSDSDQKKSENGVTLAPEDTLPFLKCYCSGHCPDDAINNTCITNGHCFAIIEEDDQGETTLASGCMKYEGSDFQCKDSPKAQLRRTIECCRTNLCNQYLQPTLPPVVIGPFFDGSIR

[4] = target: T2, BMPRIb receptor-Fc fusion; experiment: as above
[5] = target: T7, ActRIIa receptor-Fc fusion (UniProt P27037 20-134, limits assumed); experiment: ELISA-like, fixed volume of conditioned media, receptor-Fc
T7 construct: BMP receptor-Fc fusion, detected with anti-human IgG-HRP
T7 sequence (P27037 20-134 limits assumed): as the sequence (P27037 20-134 limits assumed) above

[6] = target: T3, BMPRII receptor-Fc fusion; experiment: as above
[7] = target: T8, BMPRIa receptor-Fc fusion (UniProt P36894 24-152, limits assumed); experiment: as above
T8 construct: BMP receptor-Fc fusion; also called ALK-3
T8 sequence (P36894 24-152 limits assumed): as the sequence (P36894 24-152 limits assumed) above

[8] = target: T4, BMPRIb receptor-Fc fusion; experiment: as above

Row | Binder | ActRIIa binding (relative to wild type = 1.0) [1] | BMPRII binding (relative to wild type = 1.0) [2] | BMPRIa binding (relative to wild type = 1.0) [3] | BMPRIb binding (relative to wild type = 1.0) [4] | ActRIIa binding relative to wild type [5] | BMPRII binding relative to wild type [6] | BMPRIa binding relative to wild type [7] | BMPRIb binding relative to wild type [8]
1 | B1 | 1.18 relative to wild type | 0.91 relative to wild type | 1.05 relative to wild type | 1.11 relative to wild type | – | – | – | –
2 | B2 | 1.02 relative to wild type | 0.73 relative to wild type | 1.02 relative to wild type | 1.38 relative to wild type | – | – | – | –
3 | B3 | – | – | – | – | 0.89 relative to wt = 1.0 | 0.5 relative to wt = 1.0 | 0.54 relative to wt = 1.0 | 0.6 relative to wt = 1.0
4 | B4 | 0.92 relative to wild type | 0.85 relative to wild type | 0.75 relative to wild type | 0.69 relative to wild type | – | – | – | –
5 | B5 | 1.11 relative to wild type | 1.78 relative to wild type | 1.4 relative to wild type | 1.57 relative to wild type | – | – | – | –
6 | B6 | 1.93 relative to wild type | 2.72 relative to wild type | 1.05 relative to wild type | 2.01 relative to wild type | – | – | – | –
7 | B7 | 1 relative to wild type | 0.91 relative to wild type | 0.58 relative to wild type | 0.79 relative to wild type | – | – | – | –
8 | B8 | – | – | – | – | 0.88 relative to wt = 1.0 | 0.72 relative to wt = 1.0 | 0.67 relative to wt = 1.0 | 0.82 relative to wt = 1.0
9 | B9 | 1.63 relative to wild type | 2.66 relative to wild type | 0.87 relative to wild type | 2.4 relative to wild type | – | – | – | –
10 | B10 | 1.07 relative to wild type | 1 relative to wild type | 1.08 relative to wild type | 1.66 relative to wild type | – | – | – | –
11 | B11 | 0.36 relative to wild type | 0.25 relative to wild type | 1.09 relative to wild type | 1.33 relative to wild type | – | – | – | –
12 | B12 | 2.26 relative to wild type | 3.13 relative to wild type | 1.36 relative to wild type | 2.39 relative to wild type | – | – | – | –
13 | B13 | 1.15 relative to wild type | 0.97 relative to wild type | 0.77 relative to wild type | 0.79 relative to wild type | – | – | – | –
14 | B14 | – | – | – | – | 0.99 relative to wt = 1.0 | 1 relative to wt = 1.0 | 1.03 relative to wt = 1.0 | 1.02 relative to wt = 1.0
15 | B15 | – | – | – | – | 0.84 relative to wt = 1.0 | 0.26 relative to wt = 1.0 | 0.54 relative to wt = 1.0 | 0.65 relative to wt = 1.0
16 | B16 | – | – | – | – | 1.02 relative to wt = 1.0 | 0.88 relative to wt = 1.0 | 0.74 relative to wt = 1.0 | 0.87 relative to wt = 1.0
17 | B17 | 0.53 relative to wild type | 0.22 relative to wild type | 0.67 relative to wild type | 0.17 relative to wild type | – | – | – | –
18 | B18 | 1 relative to wild type | 0.97 relative to wild type | 1.14 relative to wild type | 1.43 relative to wild type | – | – | – | –
19 | B19 | 1.17 relative to wild type | 0.98 relative to wild type | 0.81 relative to wild type | 0.94 relative to wild type | – | – | – | –
20 | B20 | 1.69 relative to wild type | 1.25 relative to wild type | 0.92 relative to wild type | 0.33 relative to wild type | – | – | – | –
21 | B21 | – | – | – | – | 0.53 relative to wt = 1.0 | 0.12 relative to wt = 1.0 | 0.3 relative to wt = 1.0 | 0.35 relative to wt = 1.0
22 | B22 | 1.58 relative to wild type | 1.77 relative to wild type | 1.29 relative to wild type | 2.75 relative to wild type | – | – | – | –
23 | B23 | 0.41 relative to wild type | 0.82 relative to wild type | 0.35 relative to wild type | 0 relative to wild type | – | – | – | –
24 | B24 | 0.45 relative to wild type | 1.46 relative to wild type | 2.05 relative to wild type | 1.81 relative to wild type | – | – | – | –
25 | B25 | – | – | – | – | 0.98 relative to wt = 1.0 | 0.75 relative to wt = 1.0 | 0.74 relative to wt = 1.0 | 0.86 relative to wt = 1.0
26 | B26 | 1.07 relative to wild type | 1.47 relative to wild type | 1.36 relative to wild type | 1.34 relative to wild type | – | – | – | –
27 | B27 | – | – | – | – | 1.17 relative to wt = 1.0 | 1.07 relative to wt = 1.0 | 1.1 relative to wt = 1.0 | 1.15 relative to wt = 1.0
28 | B28 | 1.2 relative to wild type | 1.52 relative to wild type | 1.75 relative to wild type | 2.17 relative to wild type | – | – | – | –
